Measured values reported in patent US20230406950A1 (LYVGEN BIOPHARMA, published 2023).
Blank lines part the entries; values can stand above or below the binder they belong to.

Assays:
[1] = target: T1, human CD137 expressed on cells (human, UniProt Q07011 24-255); test: flow cytometry (FACS), MFI, CHO cells expressing human CD137
T1 construct: whole, on cells; also called 4-1BB; TNFRSF9
Description: (§1) Exemplary anti-PD-1/CD137 bi-specific antibodies were analyzed by FACS for their binding properties to human PD-1 and/or human CD137 expressed on CHO cells. Briefly, cultured cells were harvested, counted and cell viability was evaluated using the Trypan Blue exclusion method. Viable cells were then adjusted to 2×10⁶ cells per mL in PBS containing 2% BSA. 100 μL of this cell suspension were further aliquoted per well into a V-bottom 96-well plate. […] After incubation for 2 hours at 4° C., cells were centrifuged (3 min, 1000× g), washed with 250 μL/well BSA-containing FACS Stain Buffer, resuspended and incubated for an additional 1 hour at 4° C. with 100 μL/well fluorochrome-conjugated anti-IgG antibody for detection of the bisepecific antibody. Cells were then washed with 250 μL/well BSA-containing FACS Stain Buffer, resuspended in 100 μL/well FACS Stain Buffer, acquired and analyzed using a FACS machine. Binding of the bispecific antibodies to human PD-1 or human CD137 expressing CHO cells were evaluated and the mean fluorescence intensity is plotted in histograms or dot plots.

[2] = target: T2, human CD137 ECD protein (His tag) (human, UniProt Q07011 24-186); test: bridging ELISA: human CD137 ECD (His tag) coated, antibody titrated, then human PD-1 ECD (mouse IgG2a Fc tag), HRP anti-mouse IgG2a Fc; A450-A620
T2 construct: extracellular domain; also called recombinant human CD137; not shown: His tag
Description: Exemplary anti-PD-1/CD137 bi-specific antibodies were analyzed by ELISA for their simultaneous binding to recombinant human PD-1 and human CD137. Briefly, human CD137 ECD protein (His tag) was diluted and coated onto an ELISA plate with a volume of 100 μL/well by incubation at 4° C. overnight. The next day, the plate was blocked with PBST-BSA buffer, then serially diluted samples of anti-PD-1/CD137 bi-specific antibodies were pipetted into appropriate wells at 50 μL/well, and the plate was incubated for 1 hour followed by washing. The extracellular domain (ECD) of human PD-1 protein (mouse IgG2a Fc tag) was added into the plate at 50 μL/well. After 1-hour incubation at room temperature, HRP-conjugated anti-Mouse IgG, Fc G2a specific antibody was added into the plate at 100 μL/well. The plate was incubated for 1 hour at room temperature followed by washing. TMB substrate solution was added at 100 μL/well and the color development was stopped by adding 100 uL/well Stop Solution (2N H₂SO₄). Absorbance at 450 nm and 620 nm was read by Tecan F200 Pro plate reader. GraphPad 7.0, “[Agonist] vs. response—Variable slope (four parameters)” was used to plot the binding data and calculate binding EC50 values.

[3] = target: T3, human PD-1 expressed on cells (human, UniProt Q15116 25-288); test: flow cytometry (FACS), MFI, CHO cells expressing human PD-1
T3 construct: whole, on cells; also called human PD-1 over-expressed on the CHO cells; Jurkat/NFkB-Luci/PD-1 cells
T3 sequence (Q15116 25-288): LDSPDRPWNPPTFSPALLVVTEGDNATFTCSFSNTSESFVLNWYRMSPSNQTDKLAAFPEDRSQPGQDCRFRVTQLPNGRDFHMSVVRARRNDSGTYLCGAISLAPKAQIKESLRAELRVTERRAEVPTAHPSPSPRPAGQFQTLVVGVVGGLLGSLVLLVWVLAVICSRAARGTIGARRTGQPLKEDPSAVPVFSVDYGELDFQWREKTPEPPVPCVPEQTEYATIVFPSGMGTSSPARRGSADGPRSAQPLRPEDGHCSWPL
Description: as §1

T1 sequence (Q07011 24-255): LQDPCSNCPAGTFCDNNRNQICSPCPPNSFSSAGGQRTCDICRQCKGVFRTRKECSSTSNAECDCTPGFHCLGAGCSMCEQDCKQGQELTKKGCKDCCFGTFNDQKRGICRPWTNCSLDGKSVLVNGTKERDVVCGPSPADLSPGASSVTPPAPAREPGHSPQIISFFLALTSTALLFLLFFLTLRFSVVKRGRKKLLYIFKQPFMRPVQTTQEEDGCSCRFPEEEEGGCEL

binding result [1]: binds
binding result [2]: binds
EC50 (read off the curve) [3]: ~0.2 µg/mL
B1: Ly460 (bispecific antibody, human IgG1, kappa)
heavy: QVTLKESGPALVKPTQTLTLTCTFSGFSLSTSGTCVSWIRQPPGKALEWLATICWEDSKGYNPSLKSRLTISKDTSKNQAVLTMTNMDPVDTATYYCARREDSGYFWFPYWGQGTLVTVSSASTKGPSVFPLAPSSKSTSGGTAALGCLVKDYFPEPVTVSWNSGALTSGVHTFPAVLQSSGLYSLSSVVTVPSSSLGTQTYICNVNHKPSNTKVDKKVEPKSCDKTHTCPPCPAPELLGPSVFLFPPKPKDTLMISRTPEVTCVVVDVSHEDPEVKFNWYVDGVEVHNAKTKPREEQYNSTYRVVSVLTVLHQDWLNGKEYKCKVSNKALPAPIEKTISKAKGQPREPQVYTLPPSREEMTKNQVSLTCLVKGFYPSDIAVEWESNGQPENNYKTTPPVLDSDGSFFLYSKLTVDKSRWQQGNVFSCSVMHEALHNHYTQKSLSLSPGGGGGSGGGGSGGGGSGGGGSDIQMTQSPSSLSASVGDRVTITCRASQDIRSNLNWYQQKPGGAVKLLIYYTSRLHSGVPSRFSGSGSGTDYTLTISSLQPEDFATYFCQQSEKLPRTFGGGTKVEIRRTVAAPSVFIFPPSDEQLKSGTASVVCLLNNFYPREAKVQWKVDNALQSGNSQESVTEQDSKDSTYSLSSTLTLSKADYEKHKVYACEVTHQGLSSPVTKSFNRGEC
light: NIQMTQSPSSLSASVGDRVTITCKAGQNVNNYLAWYQQKPGKAPKVLIFNANSLQTGVPSRFSGSGSGTDFTLTISSLQPEDFATYYCQQYNSWPTFGGGTKVEIKRTVAAPSVFIFPPSDEQLKSGTASVVCLLNNFYPREAKVQWKVDNALQSGNSQESVTEQDSKDSTYSLSSTLTLSKADYEKHKVYACEVTHQGLSSPVTKSFNRGEC
chain: QVQLVQSGAEVKKPGASVKVSCKASGYTFAGFEMHWVRQAPGQGLEWMGAIDPKTGGTDYNQKFKDRVTMTRDTSISTAYMELSRLRSDDTAVYYCARDLGYFDVWGQGTLVTVSSASTKGPSVFPLAPSSKSTSGGTAALGCLVKDYFPEPVTVSWNSGALTSGVHTFPAVLQSSGLYSLSSVVTVPSSSLGTQTYICNVNHKPSNTKVDKKVEPKSCDK
notes: Three-chain format: Ly516 heavy chain fused to Ly1630 light chain; Ly516 light chain; Ly1630 VH-CH1

EC50 (read off the curve) [1]: ~0.2 µg/mL
EC50 (read off the curve) [2]: ~0.02 µg/mL
EC50 (read off the curve) [3]: ~0.2 µg/mL
B2: Ly511 (bispecific antibody, human IgG2, kappa)
heavy: QVTLKESGPALVKPTQTLTLTCTFSGFSLSTSGTCVSWIRQPPGKALEWLATICWEDSKGYNPSLKSRLTISKDTSKNQAVLTMTNMDPVDTATYYCARREDSGYFWFPYWGQGTLVTVSSASTKGPSVFPLAPCSRSTSESTAALGCLVKDYFPEPVTVSWNSGALTSGVHTFPAVLQSSGLYSLSSVVTVPSSNFGTQTYTCNVDHKPSNTKVDKTVERKCCVECPPCPAPPVAPSVFLFPPKPKDTLMISRTPEVTCVVVDVSHEDPEVQFNWYVDGVEVHNAKTKPREEQFNSTFRVVSVLTVVHQDWLNGKEYKCKVSNKGLPAPIEKTISKTKGQPREPQVYTLPPSREEMTKNQVSLTCLVKGFYPSDIAVEWESNGQPENNYKTTPPMLDSDGSFFLYSKLTVDKSRWQQGNVFSCSVMHEALHNHYTQKSLSLSPGGGGGSGGGGSGGGGSGGGGSQVQLVQSGAEVKKPGASVKVSCKASGYTFAGFEMHWVRQAPGQGLEWMGAIDPKTGGTDYNQKFKDRVTMTRDTSISTAYMELSRLRSDDTAVYYCARDLGYFDVWGQGTLVTVSSGGGGSGGGGSGGGGSGGGGSDIQMTQSPSSLSASVGDRVTITCRASQDIRSNLNWYQQKPGGAVKLLIYYTSRLHSGVPSRFSGSGSGTDYTLTISSLQPEDFATYFCQQSEKLPRTFGGGTKVEIR
light: B1 light
notes: Anti-PD-1/CD137: Ly516 heavy chain fused to Ly1630 scFv (VH-VL); Ly516 light chain

EC50 (read off the curve) [2]: ~0.02 µg/mL
EC50 (read off the curve) [3]: ~0.2 µg/mL
B3: Ly510 (bispecific antibody, human IgG2, kappa)
heavy: QVTLKESGPALVKPTQTLTLTCTFSGFSLSTSGTCVSWIRQPPGKALEWLATICWEDSKGYNPSLKSRLTISKDTSKNQAVLTMTNMDPVDTATYYCARREDSGYFWFPYWGQGTLVTVSSASTKGPSVFPLAPCSRSTSESTAALGCLVKDYFPEPVTVSWNSGALTSGVHTFPAVLQSSGLYSLSSVVTVPSSNFGTQTYTCNVDHKPSNTKVDKTVERKCCVECPPCPAPPVAPSVFLFPPKPKDTLMISRTPEVTCVVVDVSHEDPEVQFNWYVDGVEVHNAKTKPREEQFNSTFRVVSVLTVVHQDWLNGKEYKCKVSNKGLPAPIEKTISKTKGQPREPQVYTLPPSREEMTKNQVSLTCLVKGFYPSDIAVEWESNGQPENNYKTTPPMLDSDGSFFLYSKLTVDKSRWQQGNVFSCSVMHEALHNHYTQKSLSLSPGGGGGSGGGGSGGGGSGGGGSDIQMTQSPSSLSASVGDRVTITCRASQDIRSNLNWYQQKPGGAVKLLIYYTSRLHSGVPSRFSGSGSGTDYTLTISSLQPEDFATYFCQQSEKLPRTFGGGTKVEIRGGGGSGGGGSGGGGSGGGGSQVQLVQSGAEVKKPGASVKVSCKASGYTFAGFEMHWVRQAPGQGLEWMGAIDPKTGGTDYNQKFKDRVTMTRDTSISTAYMELSRLRSDDTAVYYCARDLGYFDVWGQGTLVTVSS
light: B1 light
notes: Anti-PD-1/CD137: Ly516 heavy chain (other constant region than Ly456) fused to Ly1630 scFv (VL-VH); Ly516 light chain

EC50 (read off the curve) [2]: ~0.02 µg/mL
EC50 (read off the curve) [3]: ~0.2 µg/mL
B4: Ly456 (bispecific antibody, human IgG1, kappa)
heavy: QVTLKESGPALVKPTQTLTLTCTFSGFSLSTSGTCVSWIRQPPGKALEWLATICWEDSKGYNPSLKSRLTISKDTSKNQAVLTMTNMDPVDTATYYCARREDSGYFWFPYWGQGTLVTVSSASTKGPSVFPLAPSSKSTSGGTAALGCLVKDYFPEPVTVSWNSGALTSGVHTFPAVLQSSGLYSLSSVVTVPSSSLGTQTYICNVNHKPSNTKVDKKVEPKSCDKTHTCPPCPAPELLGPSVFLFPPKPKDTLMISRTPEVTCVVVDVSHEDPEVKFNWYVDGVEVHNAKTKPREEQYNSTYRVVSVLTVLHQDWLNGKEYKCKVSNKALPAPIEKTISKAKGQPREPQVYTLPPSREEMTKNQVSLTCLVKGFYPSDIAVEWESNGQPENNYKTTPPVLDSDGSFFLYSKLTVDKSRWQQGNVFSCSVMHEALHNHYTQKSLSLSPGGGGGSGGGGSGGGGSGGGGSDIQMTQSPSSLSASVGDRVTITCRASQDIRSNLNWYQQKPGGAVKLLIYYTSRLHSGVPSRFSGSGSGTDYTLTISSLQPEDFATYFCQQSEKLPRTFGGGTKVEIRGGGGSGGGGSGGGGSGGGGSQVQLVQSGAEVKKPGASVKVSCKASGYTFAGFEMHWVRQAPGQGLEWMGAIDPKTGGTDYNQKFKDRVTMTRDTSISTAYMELSRLRSDDTAVYYCARDLGYFDVWGQGTLVTVSS
light: B1 light
notes: Anti-PD-1/CD137: Ly516 heavy chain fused at C-terminus to Ly1630 scFv (VL-VH); Ly516 light chain

EC50 (read off the curve) [2]: ~0.02 µg/mL
EC50 (read off the curve) [3]: ~0.1 µg/mL
B5: Ly512 (bispecific antibody, human IgG2, kappa)
heavy: QVTLKESGPALVKPTQTLTLTCTFSGFSLSTSGTCVSWIRQPPGKALEWLATICWEDSKGYNPSLKSRLTISKDTSKNQAVLTMTNMDPVDTATYYCARREDSGYFWFPYWGQGTLVTVSSASTKGPSVFPLAPCSRSTSESTAALGCLVKDYFPEPVTVSWNSGALTSGVHTFPAVLQSSGLYSLSSVVTVPSSNFGTQTYTCNVDHKPSNTKVDKTVERKCCVECPPCPAPPVAPSVFLFPPKPKDTLMISRTPEVTCVVVDVSHEDPEVQFNWYVDGVEVHNAKTKPREEQFNSTFRVVSVLTVVHQDWLNGKEYKCKVSNKGLPAPIEKTISKTKGQPREPQVYTLPPSREEMTKNQVSLTCLVKGFYPSDIAVEWESNGQPENNYKTTPPMLDSDGSFFLYSKLTVDKSRWQQGNVFSCSVMHEALHNHYTQKSLSLSPGK
light: NIQMTQSPSSLSASVGDRVTITCKAGQNVNNYLAWYQQKPGKAPKVLIFNANSLQTGVPSRFSGSGSGTDFTLTISSLQPEDFATYYCQQYNSWPTFGGGTKVEIKRTVAAPSVFIFPPSDEQLKSGTASVVCLLNNFYPREAKVQWKVDNALQSGNSQESVTEQDSKDSTYSLSSTLTLSKADYEKHKVYACEVTHQGLSSPVTKSFNRGECGGGGSGGGGSGGGGSGGGGSDIQMTQSPSSLSASVGDRVTITCRASQDIRSNLNWYQQKPGGAVKLLIYYTSRLHSGVPSRFSGSGSGTDYTLTISSLQPEDFATYFCQQSEKLPRTFGGGTKVEIRGGGGSGGGGSGGGGSGGGGSQVQLVQSGAEVKKPGASVKVSCKASGYTFAGFEMHWVRQAPGQGLEWMGAIDPKTGGTDYNQKFKDRVTMTRDTSISTAYMELSRLRSDDTAVYYCARDLGYFDVWGQGTLVTVSS
notes: Anti-PD-1/CD137: Ly516 heavy chain; Ly516 light chain fused to Ly1630 scFv (VL-VH)
